According to patent US9682130B2 (priority 2015, dated 2017):
Values joined by “and” are separate entries in the source; they are usually repeats but may differ in a detail not shown here. Identical values can stand only once.

Legend:
[1] = Eye irritation, Draize scale (MMTS), Ad5/NZW rabbit ocular model; format: in vivo; settings: for Ocular irritation MMTS score, Day 3 / Ocular irritation MMTS score, Day 9 / Ocular irritation class, Day 3 / Ocular irritation class, Day 9: topical both eyes 8x daily
Procedure: To conduct this in vivo assay, 25 NZW rabbit were anesthetized using the general anesthesia ketamine and xylazine and the topical anesthesia proparacaine. Each rabbit was then topically inoculated with 50 μL of Adenovirus serotype Ad5 (3×10^7 pfu/mL) in both eyes after corneal epithelial scarification (12 cross-hatched strokes of a 25 sterile needle). Eyes were closed and gently rubbed for 5 seconds to ensure contact of the virus on all ocular surfaces. Inoculation of both eyes allowed for the reduction in the number of animals needed without jeopardizing statistical validity. […] All topical solutions (37 μL drops) were instilled with an electronic pipette (EDP; Rainin, Oakland, Calif.) set in the multi-dispense mode. Ocular swabbing to recover adenovirus from tear film and corneal and conjunctival surfaces, after topical anesthesia with proparacaine, was performed at least 1 hour after the final dose on days 0, 1, 3, 4, 5, 7, 9, 11, and 14 after inoculation. The ocular samples from each eye was placed individually into tubes containing 1 mL of medium and were frozen at −70° C. pending viral plaque assay.
The animals were assayed for eye irritation using a Draize scale for ocular lesions. Classification of eye irritation was evaluated for both eyes of each rabbit on day 3 and day 9 using the maximum mean total score (MMTS; Table 4). See, e.g., Kay and Calandra, Interpretation of Eye Irritation Tests, J. Soc. Cos. Chem. 13: 281-289 (1962), the content of which is hereby incorporated by reference in its entirety. The MMTS score used was as follows: 0.0-0.5, Non-Irritating (N); 0.6-2.5, Practically Non-Irritating (PN); 2.6-15.0, Minimally Irritating (M1); 15.1-25.0, Mildly Irritating (M2); 25.1-50.0, Moderately Irritating (M3); 50.1-80.0, Severely Irritating (S); 80.1-100.0, Extremely Irritating (E); and 100.1-110.0, Maximally Irritating (Mx).

[2] = Jones Dye test for nasolacrimal duct blockage; format: in vivo, NZW rabbit; settings: Day 21, all Ranpirnase concentrations
Procedure: The animals were also assayed on day 21 for nasolacrimal duct blockage by performing a Jones Dye test. On Day 21, a drop of sodium fluorescein was placed in each eye and the time to the dye appearing in the ipsilateral nostril was measured.

[3] = system: MA-104 cells
[4] = system: A549 cells; test: In vitro cytotoxicity, ALAMARBLUE fluorometric stain; format: cell-based; settings: 2 days
Procedure: Ophthalmol. Vis. Sci. 50: 5295-5299 (2009), which is hereby incorporated by reference in its entirety.
To assess in vitro cytotoxicity, 96-well plates were seeded with A549 cells at 1×10^5 cells/mL and incubated overnight at 37° C. with 5% CO2. […] After removal of the tissue culture media, 100 μL of each dilution was added to 3 wells of a 96-well plate with 80% to 100% confluent cells. […] Each test and control treatment was incubated on the A549 monolayers for 2 days at 37° C. with 5% CO2. A 100 μL aliquot of the fluorometric stain was then added to each well, and the cells incubated for 1 hour at 37° C. with 5% CO2. The fluorometric stain (ALAMARBLUE®, Invitrogen, Carlsbad, Calif.) acts as a redox indicator that is reduced to a fluorescent form by metabolically active living cells. Fluorescence was then be read with a plate reader (Biotek Synergy 2; Biotek), with a 500/27-nm excitation filter and a 620/40-nm emission filter, at a sensitivity of 35.

[5] = system: Human Adenovirus 8 (Ad8 strain 13306); test: Virus yield reduction assay, Adenovirus 8; format: cell-based
Procedure: The concentration of test compound required to inhibit CPE by 50% or reduce red uptake into cells by 50% (EC50) was calculated by regression analysis. The toxicity of the compound without virus present was similarly calculated using the uninfected wells treated with test compounds compared with untreated cell controls. The concentration of compound that would cause 50% cytotoxic effects in the absence of virus (CC50) was estimated by linear regression analysis. The selectivity index (SI) is the CC50 divided by EC50.
The virus yield reduction assay was used to determine actual virus amounts in the presence and absence of the test compound; this is the confirmatory assay for antiviral activity. […] Replicate wells of each compound concentration or control were pooled and frozen at −80° C. Samples were thawed and diluted by 10-fold serial dilutions. A 100 μL aliquot of each dilution was then plated onto 4 replicate wells of 96-well plates seeded with the applicable cells for each virus strain. Plates were incubated as noted above until viral CPE reached its endpoint, then each well was scored microscopically for the presence of viral CPE. The virus titer was determined based on the endpoint using the Reed-Muench method. […]

B1: Ranpirnase (protein, UniProt P22069 1-104, looked up)
Protein P-30: QDWLTFQKKHITNTRDVDCDNIMSTNLFHCKDKNTFIYSRPEPVKAICKGIIASKNVLTTSEFYLSDCNVTSRPCKYKLKKSTNKFCVTCENQAPVHFVGVGSC
notes: amphibian ribonuclease originally isolated from oocytes and/or early embryos of Rana pipiens; pancreatic ribonuclease (RNase A) superfamily, about 12 kD
Eye irritation compared to saline and Cidofovir controls ([1]; 0.25 μM Ranpirnase): no eye irritation as compared to both the saline and Cidofovir controls | Ocular irritation MMTS score, Day 3 ([1]; 0.25 μM Ranpirnase (group 1C)): 7.5 | Ocular irritation MMTS score, Day 9 ([1]; 0.25 μM Ranpirnase (group 1C)): 22.5 | Ocular irritation class, Day 3 ([1]; 0.25 μM Ranpirnase (group 1C)): M1 (2.6-15.0, Minimally Irritating (M1)) | Ocular irritation class, Day 9 ([1]; 0.25 μM Ranpirnase (group 1C)): M2 (15.1-25.0, Mildly Irritating (M2)) | Ocular irritation MMTS score, Day 3 ([1]; 2.5 μM Ranpirnase (group 1B)): 14.6 | Ocular irritation MMTS score, Day 9 ([1]; 2.5 μM Ranpirnase (group 1B)): 60.7 | Ocular irritation class, Day 3 ([1]; 2.5 μM Ranpirnase (group 1B)): M1 (2.6-15.0, Minimally Irritating (M1)) | Ocular irritation class, Day 9 ([1]; 2.5 μM Ranpirnase (group 1B)): S (50.1-80.0, Severely Irritating (S)) | Ocular irritation MMTS score, Day 3 ([1]; 25 μM Ranpirnase (group 1A)): 22.0 | Ocular irritation MMTS score, Day 9 ([1]; 25 μM Ranpirnase (group 1A)): 85.0 | Ocular irritation class, Day 3 ([1]; 25 μM Ranpirnase (group 1A)): M2 (15.1-25.0, Mildly Irritating (M2)) | Ocular irritation class, Day 9 ([1]; 25 μM Ranpirnase (group 1A)): E (80.1-100.0, Extremely Irritating (E)) | Ocular toxicity compared to Saline and CDV controls ([1]; 25, 2.5 and 0.25 μM Ranpirnase, Ad5/NZW rabbit ocular model): dose dependent ocular toxicity | Blocked nasolacrimal ducts, Jones Dye test [2]: no Ranpirnase treated rabbits, regardless of concentration, resulted in blocked nasolacrimal ducts | CPE Reduction Assay CC50 [3]: 75 µg/mL | % cytotoxicity, Mean ([4]; 0.001 μM, second experiment): 3.2% | % cytotoxicity ([4]; 0.001 μM, second experiment, single assays 1-3, 0.001 µM): 5.7% and 2.3% and 1.6% | % cytotoxicity, Mean ([4]; 0.01 μM, second experiment): 7.4% | % cytotoxicity ([4]; 0.01 μM, second experiment, single assays 1-3, 0.01 µM): 8.6% and 11.7% and 7.9% | % cytotoxicity, Mean ([4]; 0.1 μM, second experiment): 5.8% | % cytotoxicity ([4]; 0.1 μM, second experiment, single assays 1-3, 0.1 µM): 6.0% and 5.3% and 6.1% | % cytotoxicity ([4]; 1.0 μM, first experiment, single assays 1-3, 1 µM): 60.9% and 61.3% and 63.7% | % cytotoxicity ([4]; 1.0 μM, second experiment, single assays 1-3, 1 µM): 11.1% and 14.6% and 18.1% | % cytotoxicity ([4]; 10 μM, first experiment, single assays 1-3, 10 µM): 65.7% and 66.5% and 67.1% | % cytotoxicity ([4]; 10 μM, second experiment, single assays 1-3, 10 µM): 29.1% and 32.7% and 37.3% | % cytotoxicity ([4]; 50 μM, first experiment, single assays 1-3, 50 µM): 75.1% and 74.0% | % cytotoxicity ([4]; 50 μM, second experiment, single assays 1-3, 50 µM): 86.7% and 86.4% | Yield Reduction Assay EC50 [5]: 25.1 µg/mL
